What all share (experiment): cryo-EM structure
The target in assay [1] is Hendravirus alpha2 -F protein (Hendra virus) (UniProt O89342).
Assay [2] concerns the target Angavokeley (AngV) fusion (F) protein ectodomain (Angavokeley virus (AngV)).
Assay [3] shares this target. This is another data set of the same source.

Read-outs that look alike come from different tables or passages of the source.

In assay [1], “Hendravirus alpha2 -F protein (from UniProt O89342 27-494) (domain or fragment)” gave a stoichiometry N of 6.
Regarding “Angavokeley (AngV) fusion (F) protein ectodomain (domain or fragment)”, the stoichiometry N in assay [2] came out at 3; in assay [3] it was 6.

The values are drawn from publication doi:10.64898/2025.12.08.693081.
